# Measured values from the supplement of paper PMC10126150.
# ± gives the standard deviation of the averaged measurements.
# Test system: ATP
# Test: switch fluorescence ratio, 500 uM ATP over buffer (Cy3 cluster intensity, sum of 5 cycles each) (fold (ratio)); higher = stronger signal-on switching upon ATP binding; sequences stand for … in TCGTCGGCAGCGTCAGATGTGTATAAGAGACAGTTTTTTTTTTTTTTTTTTTTTTTTT…TC
# Conditions: aptamer strand: ATP DNA aptamer (quencher-CACCTGGGGGAGTATTGCGGAGGAAGG + anchor), 100 nM annealed; ATP concentration: 500 uM
# Procedure, shortened: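 After annealing to 100 nM quencher-labelled ATP aptamer, Cy3-labelled switching-strand clusters on a modified Illumina MiSeq flow-cell were imaged in selection buffer. A second image followed after 15 min with 500 uM ATP at 22 °C, and five such buffer/ATP cycles were done, each separated by NaOH stripping and re-annealing. The fluorescence ratio, averaged per switch-domain sequence, is summed target-cycle over summed buffer-cycle Cy3 intensity per cluster, with clusters outside 100-1000 RFU excluded.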
# 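Also: ATP exposure 15 min at 22 °C before imaging.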
row,Sequence,switch fluorescence ratio
1,AATGGCGGCC,1.03 ± 0.039
2,AATGGCTGTG,0.972 ± 0.033
3,AATGGGAAGG,0.971 ± 0.028
4,AATGGGACTT,1.02 ± 0.015
5,AATGGGATAC,1.16 ± 0.027
6,AATGGGGGAC,1.001 ± 0.0025
7,AATGGGGGAG,0.981 ± 0.0099
8,AATGGGGGCA,1.007 ± 0.0076
9,AATGGGGTAC,1.009 ± 0.0087
10,AATGGGTGAG,0.982 ± 0.014
11,AATGGTAAAC,1.04 ± 0.018
12,AATGGTGAAT,0.996 ± 0.03
13,AATGGTGCGA,0.975 ± 0.012
14,AATGGTGTGT,1.01 ± 0.018
15,AATGGTTGTG,1 ± 0.022
16,AATGTAAGGT,1.012 ± 0.006
17,AATGTACTTT,1.03 ± 0.032
18,AATGTATTTT,1.01 ± 0.029
19,AATGTCGCGA,1 ± 0.025
20,AATGTGCCGT,1.07 ± 0.04
21,AATGTGGCTA,1.01 ± 0.037
22,AATGTGGGTA,0.982 ± 0.015
23,AATGTGGTAA,0.959 ± 0.043

row,Sequence,switch fluorescence ratio
1,AATGTGGTTG,0.997 ± 0.013
2,AATGTGTTGT,0.998 ± 0.011
3,AATGTTACGC,1.02 ± 0.058
4,AATGTTAGGC,1.02 ± 0.034
5,AATGTTATAG,1.008 ± 0.00014
6,AATGTTATGG,0.9801 ± 0.0031
7,AATGTTATTG,0.99833 ± 0.00099
8,AATTAAGGCC,0.992 ± 0.026
9,AATTAATGGA,0.997 ± 0.036
10,AATTACCATC,1.01 ± 0.017
11,AATTACGGGT,1 ± 0.021
12,AATTACTTTA,1.03 ± 0.029
13,AATTAGACAG,0.9912 ± 0.0047
14,AATTAGAGTA,0.994 ± 0.068
15,AATTAGATAC,1.12 ± 0.074
16,AATTAGGTGC,1.14 ± 0.077
17,AATTAGGTGG,1.01 ± 0.039
18,AATTAGTGGG,0.995 ± 0.025
19,AATTAGTTCG,0.98 ± 0.02
20,AATTATGGGG,0.999 ± 0.032
21,AATTCAGGGG,1.07 ± 0.069
22,AATTCGGGGG,1.04 ± 0.054
23,AATTCGGGGT,1.005 ± 0.0024

row,Sequence,switch fluorescence ratio
1,AATTCGTATC,1.008 ± 0.0024
2,AATTCTGGAA,0.982 ± 0.011
3,AATTGAAAAG,0.982 ± 0.027
4,AATTGAGTAT,1.01 ± 0.015
5,AATTGCCAGA,1.02 ± 0.02
6,AATTGCCAGT,1.01 ± 0.018
7,AATTGCGGTA,0.982 ± 0.05
8,AATTGGAAAA,0.987 ± 0.019
9,AATTGGATGG,1.02 ± 0.047
10,AATTGGGATG,0.975 ± 0.034
11,AATTGGTACG,0.992 ± 0.021
12,AATTGGTTTT,0.982 ± 0.034
13,AATTGTGATG,1.01 ± 0.02
14,AATTGTGTAC,1.052 ± 0.0018
15,AATTGTTGTT,0.998 ± 0.033
16,AATTGTTTCA,0.974 ± 0.016
17,AATTGTTTGT,0.998 ± 0.016
18,AATTTAAAGC,1.03 ± 0.07
19,AATTTAAATG,0.977 ± 0.03
20,AATTTAAGCG,1.01 ± 0.017
21,AATTTAATAT,1.01 ± 0.016
22,AATTTACATG,1.02 ± 0.024
23,AATTTACGAT,1.02 ± 0.014

row,Sequence,switch fluorescence ratio
1,AATTTACTGT,1.01 ± 0.023
2,AATTTATCCG,1.02 ± 0.059
3,AATTTATGC,0.97 ± 0.011
4,AATTTCATTG,0.9986 ± 0.0035
5,AATTTGAGAA,0.998 ± 0.029
6,AATTTGGCAC,1.05 ± 0.09
7,AATTTGGCAG,0.99 ± 0.025
8,AATTTGGTCC,1.04 ± 0.058
9,AATTTGTGCG,0.991 ± 0.012
10,AATTTTAGGA,0.98 ± 0.028
11,AATTTTATAC,1.02 ± 0.016
12,AATTTTATTG,0.988 ± 0.05
13,AATTTTCCAC,1.02 ± 0.043
14,AATTTTGGAC,1.01 ± 0.017
15,AATTTTGGGT,1 ± 0.041
16,AATTTTGGTT,0.99 ± 0.017
17,AATTTTTACT,1.05 ± 0.1
18,AATTTTTCGG,0.994 ± 0.042
19,AATTTTTGTG,0.988 ± 0.022
20,AATTTTTTAT,0.979 ± 0.036
21,AATTTTTTCC,1.41 ± 0.53
22,ACAAAAAGGG,1.02 ± 0.039
23,ACAAAAGGGG,1.16 ± 0.22

row,Sequence,switch fluorescence ratio
1,ACAAACACTT,1.158 ± 0.01
2,ACAAAGACCT,1.42 ± 0.031
3,ACAACGGGTG,2.1 ± 0.24
4,ACAACGGTCT,1.042 ± 0.0035
5,ACAAGAGGGT,1.002 ± 0.0051
6,ACAAGAGGTT,0.995 ± 0.018
7,ACAAGATACA,1.03 ± 0.021
8,ACAAGATTGG,1.01 ± 0.041
9,ACAAGGAGGT,0.983 ± 0.005
10,ACAAGGCAGA,1.04 ± 0.013
11,ACAAGGGTC,0.964 ± 0.025
12,ACAAGGTGAC,1.082 ± 0.0021
13,ACAAGTAAGC,1.048 ± 0.0067
14,ACAATAACAC,1.095 ± 0.0093
15,ACAATATAGA,1.0126 ± 8.1e-07
16,ACAATCGGCG,1.02 ± 0.0072
17,ACAATGTCT,0.996 ± 0.014
18,ACAATGTGGT,0.951 ± 0.018
19,ACAATTTATT,1.02 ± 0.051
20,ACACAATTTT,1.01 ± 0.026
21,ACACACCAGG,2.98 ± 0.18
22,ACACAGCGGC,1.16 ± 0.046
23,ACACAGGTAT,1.12 ± 0.059

row,Sequence,switch fluorescence ratio
1,ACACATCATA,1.07 ± 0.032
2,ACACATTGGA,1.03 ± 0.0023
3,ACACCCAAGT,1.21 ± 0.14
4,ACACCTCCAA,1.04 ± 0.027
5,ACACGAGGCT,1.04 ± 0.029
6,ACACTCACCC,1.57 ± 0.36
7,ACACTCATGG,1.03 ± 0.068
8,ACACTCATTG,1.06 ± 0.074
9,ACACTTTTCG,1.01 ± 0.035
10,ACAGAATCGA,1.02 ± 0.032
11,ACAGAATCGG,1.03 ± 0.018
12,ACAGACAATG,1.02 ± 0.045
13,ACAGACAGGC,1.05 ± 0.062
14,ACAGACTTTG,1.01 ± 0.062
15,ACAGAGGCAC,1.02 ± 0.062
16,ACAGAGGGAG,1.02 ± 0.011
17,ACAGATTTAG,0.972 ± 0.014
18,ACAGCAGGGG,1.25 ± 0.17
19,ACAGCTAAAA,1.02 ± 0.016
20,ACAGGAAAAA,0.976 ± 0.084
21,ACAGGAAACG,1.042 ± 0.0014
22,ACAGGACAGC,1.14 ± 0.049
23,ACAGGACGTT,1.11 ± 0.028

row,Sequence,switch fluorescence ratio
1,ACAGGAGCGT,1.1017 ± 0.00065
2,ACAGGAGTTT,0.999 ± 0.01
3,ACAGGATCCG,1.01 ± 0.00021
4,ACAGGCCAGC,1.01 ± 0.022
5,ACAGGCTCCG,1.05 ± 0.038
6,ACAGGGGAGT,1.03 ± 0.02
7,ACAGGGGGTG,1.07 ± 0.035
8,ACAGGGGTGG,1.02 ± 0.021
9,ACAGGTTAGA,1.05 ± 0.014
10,ACAGTAGGAA,1.08 ± 0.035
11,ACAGTCGTCT,0.949 ± 0.042
12,ACAGTCTGCG,0.962 ± 0.037
13,ACAGTGCATT,1.03 ± 0.025
14,ACAGTGTGTC,0.994 ± 0.042
15,ACAGTTATTA,1.03 ± 0.028
16,ACAGTTGGTT,0.99 ± 0.06
17,ACAGTTTTTT,0.98861 ± 1.6e-05
18,ACATAAGTG,1.02 ± 0.019
19,ACATAAGTGG,1.01 ± 0.011
